Positions of bridges follow the written chain, without caps; N, C: chain ends. Non-standard residues stand in square brackets, D forms with d. No end group written: not given here. Aib = CC(C)(N)C(=O)O
T1: IGFBP-1 (human, UniProt P08833 26-259)
T1 construct: Biotinylated in the ELISA assays; also called rhIGFBP-1
T1 sequence (looked up): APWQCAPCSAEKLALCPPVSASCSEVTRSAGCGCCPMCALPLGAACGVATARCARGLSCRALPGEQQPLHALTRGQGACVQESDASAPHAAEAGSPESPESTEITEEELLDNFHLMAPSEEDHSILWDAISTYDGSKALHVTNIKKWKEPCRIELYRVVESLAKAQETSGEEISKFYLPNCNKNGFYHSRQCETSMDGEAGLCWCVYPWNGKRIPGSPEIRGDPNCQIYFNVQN

B1: bp1-02 (peptide)
peptide: SEVGCRAGPLQWLCEKYFG-NH2
modifications: disulfide 5-14; N-terminus assumed
SMILES: CC(C)C[C@@H]1NC(=O)[C@H](Cc2c[nH]c3ccccc23)NC(=O)[C@H](CCC(N)=O)NC(=O)[C@H](CC(C)C)NC(=O)[C@@H]2CCCN2C(=O)CNC(=O)[C@H](C)NC(=O)[C@H](CCCNC(=N)N)NC(=O)[C@@H](NC(=O)CNC(=O)[C@@H](NC(=O)[C@H](CCC(=O)O)NC(=O)[C@@H](N)CO)C(C)C)CSSC[C@@H](C(=O)N[C@@H](CCC(=O)O)C(=O)N[C@@H](CCCCN)C(=O)N[C@@H](Cc2ccc(O)cc2)C(=O)N[C@@H](Cc2ccccc2)C(=O)NCC(N)=O)NC1=O
notes: 19-mer variant of bp1-01
B2: bp1-01 R2A (peptide)
peptide: CAAGPLQWLCEKYFG
modifications: disulfide 1-10 (inferred)
notes: Ala-scan variant of bp1-01; termini and disulfide not restated
B3: bp1-01 R2a (peptide)
peptide: C[dA]AGPLQWLCEKYFG
modifications: disulfide 1-10
notes: Non-natural variant of bp1-01 (a = D-alanine)
B4: bp1-01 Y13aib (peptide)
peptide: CRAGPLQWLCEK[Aib]FG
modifications: disulfide 1-10
notes: Non-natural variant of bp1-01; X stands for aib
B5: bp1-01 W8aib (peptide)
peptide: CRAGPLQ[Aib]LCEKYFG
modifications: disulfide 1-10
notes: as for B4
B6: bp1-01 L9aib (peptide)
peptide: CRAGPLQW[Aib]CEKYFG
modifications: disulfide 1-10
notes: as for B4
B7: bp1-01 L6a (peptide)
peptide: CRAGP[dA]QWLCEKYFG
modifications: disulfide 1-10
notes: as for B3
B8: bp1-01 G4a (peptide)
peptide: CRA[dA]PLQWLCEKYFG
modifications: disulfide 1-10
notes: as for B3
B9: bp1-01 Q7 aib (peptide)
peptide: CRAGPL[Aib]WLCEKYFG
modifications: disulfide 1-10
notes: as for B4
B10: bp1-01 K12aib (peptide)
peptide: CRAGPLQWLCE[Aib]YFG
modifications: disulfide 1-10
notes: as for B4
B11: bp1-01 F14aib (peptide)
peptide: CRAGPLQWLCEKY[Aib]G
modifications: disulfide 1-10
notes: as for B4
B12: bp1-01 E11aib (peptide)
peptide: CRAGPLQWLC[Aib]KYFG
modifications: disulfide 1-10
notes: as for B4
B13: peptide-phage clone 4C3.2 (g8 display) (peptide, not shown: large carriers)
chain: ELDGWVCIKVGEQNLCYLAE
modifications: not fully specified (C-terminus, bridges); cysteine pairing not given here; also: polyvalent display on phage particle
notes: Tested as a whole phage particle with polyvalent display
B14: peptide-phage clone 4D3.8 (g8 display) (peptide, not shown: large carriers)
chain: SEEVCWPVAEWYLCNILGP
modifications: not fully specified (C-terminus, bridges); cysteine pairing not given here; also: polyvalent display on phage particle
notes: as for B13
B15: peptide-phage clone 4D3.12 (g8 display) (peptide, not shown: large carriers)
chain: AEWAECWIAGDQLLCVGKDN
modifications: not fully specified (C-terminus, bridges); cysteine pairing not given here; also: polyvalent display on phage particle
notes: as for B13
B16: peptide-phage clone 4D3.9 (g8 display) (peptide, not shown: large carriers)
chain: ETVANCDCYMDLCLCYGSDR
modifications: cysteine pairing not given here; also: C-terminal fusion to linker and M13 g8p, phage-displayed
notes: as for B13

Biological target: T2, IGFBP-3 (human, UniProt P17936 28-291)
T2 construct: also called rhIGFBP-3
T2 sequence (P17936 28-291 limits assumed): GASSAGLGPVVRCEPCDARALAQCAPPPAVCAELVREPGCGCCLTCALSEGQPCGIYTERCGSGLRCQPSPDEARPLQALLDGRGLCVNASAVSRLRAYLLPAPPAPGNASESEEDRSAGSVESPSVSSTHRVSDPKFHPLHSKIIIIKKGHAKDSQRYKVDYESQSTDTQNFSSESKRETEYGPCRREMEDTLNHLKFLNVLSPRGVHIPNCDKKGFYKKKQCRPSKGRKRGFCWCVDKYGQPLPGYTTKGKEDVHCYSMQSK
Test: BIAcore competition: peptide inhibits IGFBP-3 binding to immobilized IGF-I

Row | Binder | IC50 [µM]
1 | ASEEVCWPVAEWYLCN (bp3-01-ox variant) [bp3-30] | 5.6
2 | SEEVCWPVAEWYLCN (also called BP15) [bp3-15] | 0.72
3 | GPETCWPVAEWYLCN (bp3-01-ox variant) [bp3-41] | 4
4 | EEVCWPVAEWYLCN (bp3-01-ox variant) [bp3-28] | 5.4
5 | ASEEVCWPVAEWYLCNMWGR [4d3.3] | 5.6
6 | EVCWPVAEWYLCN (bp3-01-ox variant) [bp3-27] | 2.8
7 | CWPVAEWYLCN [bp3-25 (SEQ ID NO:106)] | 46

Biological target: T1, IGFBP-1
Test: ELISA plate assay: peptide inhibits IGFBP-1 binding to IGF-I; ratio to bp1-01 (wt)

Row | Binder | IC50 (mut)/IC50 (wt) [ratio]
8 | CAAGPLQWLCEKYF (g8 bp1-01 selectant) [bp1-15] | 0.68
9 | CRAGPLQWLCERFF (g8 bp1-01 selectant) [bp1028] | 4.6
10 | CREGPLQWLCERFF (g8 bp1-01 selectant) [bp1029] | 1.7
11 | CRAGPLQWLCEKFF (g8 bp1-01 selectant) [bp68] | 0.39
12 | CRAGPLQWLCERYF (g8 bp1-01 selectant) [bp67] | 0.34
13 | CKAGPLLWLCERFF (g8 bp1-01 selectant) [bp1027] | 8.8
14 | CKEGPLLWLCERFF (g8 bp1-01 selectant) [bp1030] | 4.3
15 | B1 | 0.37

Biological target: T2, IGFBP-3
Test: BIAcore competition: peptide inhibits IGFBP-3 binding to IGF-I; ratio to bp3-01-ox

Row | Binder | IC50 (mut)/IC50 (wt) [ratio]
16 | Ac-SEEVCWPVAEWYLCN-NH2 (disulfide 5-14 (inferred)) [bp3-40] | 0.33
17 | ASEEVCWPVAEWYLCN (bp3-01-ox variant) [bp3-30] | 2.8
18 | SEEVCWPVAEWYLCN (also called BP15) [bp3-15] | 0.36
19 | GPETCWPVAEWYLCN (bp3-01-ox variant) [bp3-41] | 2
20 | WPVAEWYLCN [bp3-24 (SEQ ID NO:107)] | > 500
21 | EEVCWPVAEWYLCN (bp3-01-ox variant) [bp3-28] | 2.7
22 | SEEVCWPVAEWYLCN-NH2 (disulfide 5-14 (inferred)) [bp3-39] | 0.33
23 | ASEEVCWPVAEWYLCNMWGR [4d3.3] | 2.8
24 | EVCWPVAEWYLCN (bp3-01-ox variant) [bp3-27] | 1.4
25 | CWPVAEWYLCN [bp3-25 (SEQ ID NO:106)] | 23

Biological target: T1, IGFBP-1
Test: BIAcore competition: peptide inhibits IGFBP-1 binding to IGF-I; ratio to bp1-01 (wt)

Row | Binder | IC50 (mut)/IC50 (wt) [ratio]
26 | CRAGPLQWLCAKYFG (Ala-scan variant of bp1-01) [bp1-01 E11A] | 2.9
27 | CRAGPLAWLCEKYFG (Ala-scan variant of bp1-01) [bp1-01 Q7A] | 0.7
28 | CRAGPLQWLCEKAFG (Ala-scan variant of bp1-01) [bp1-01 Y13A] | 12.5
29 | CRAGPLQWLCEAYFG (Ala-scan variant of bp1-01) [bp1-01 K12A] | 7.9
30 | CRAGPLQWACEKYFG (Ala-scan variant of bp1-01) [bp1-01 L9A] | 33.2
31 | CRAGPLQWLCEKYAG (Ala-scan variant of bp1-01) [bp1-01 F14A] | 6.2
32 | CRAGPAQWLCEKYFG (Ala-scan variant of bp1-01) [bp1-01 L6A] | 30.3
33 | B2 | 0.9
34 | CRAGPLQALCEKYFG (Ala-scan variant of bp1-01) [bp1-01 W8A] | 7.4

Biological target: T1, IGFBP-1
Test: BIAcore competition: peptide inhibits IGFBP-1 binding to IGF-II; ratio to bp1-01 (wt)

Row | Binder | IC50 (mut)/IC50 (wt) [ratio]
35 | CRAGPLQWLCAKYFG (Ala-scan variant of bp1-01) [bp1-01 E11A] | 2.4
36 | CRAGPLAWLCEKYFG (Ala-scan variant of bp1-01) [bp1-01 Q7A] | 0.6
37 | CRAGPLQWLCEKAFG (Ala-scan variant of bp1-01) [bp1-01 Y13A] | 14.6
38 | CRAGPLQWLCEAYFG (Ala-scan variant of bp1-01) [bp1-01 K12A] | 5.3
39 | CRAGPLQWACEKYFG (Ala-scan variant of bp1-01) [bp1-01 L9A] | 29.7
40 | CRAGPLQWLCEKYAG (Ala-scan variant of bp1-01) [bp1-01 F14A] | 5.8
41 | CRAGPAQWLCEKYFG (Ala-scan variant of bp1-01) [bp1-01 L6A] | 34.7
42 | B2 | 0.9
43 | CRAGPLQALCEKYFG (Ala-scan variant of bp1-01) [bp1-01 W8A] | 6.4

Biological target: T1, IGFBP-1
Test: biotinylated-IGFBP-1 ELISA: peptide inhibits IGFBP-1 binding to IGF-I; ratio to bp1-01 (wt)

Row | Binder | IC50 (mut)/IC50 (wt) [ratio]
44 | B3 | 50
45 | B4 | 7.1
46 | B5 | 24
47 | CR[dA]GPLQWLCEKYFG (disulfide 1-10 (inferred)) [bp1-01 A3a] | 34
48 | B6 | 400
49 | B7 | 400
50 | B8 | 0.6
51 | B9 | 1.6
52 | B10 | 2
53 | B11 | 3
54 | B12 | 1

Biological target: T1, IGFBP-1
Test: BIAcore competition (starred): peptide inhibits IGFBP-1 binding to IGF-I; ratio to bp1-01 (wt)

Row | Binder | IC50 (mut)/IC50 (wt) [ratio]
55 | CRKGPLQWLCELYF (g8 bp1-01 selectant) [bp1-10] | 1.1

Biological target: T3, recombinant human IGFBP-3 (human, UniProt P17936 28-291)
T3 construct: also called rhIGFBP-3
T3 sequence (P17936 28-291 limits assumed): as the sequence (P17936 28-291 limits assumed) above
Test: phage ELISA on IGFBP-3 plate, 50-fold phage dilution, with/without 100 nM IGF-I as competitor (FIG. 29)
Protocol: The plates were then washed ten times, as above, and a solution of rabbit anti-phage antibody mixed with a goat-anti-rabbit conjugate of horse radish peroxidase was added. After an incubation of 1 hour at room temperature, the plates were developed with a chromogenic substrate, o-phenylenediamine (Sigma). The reaction was stopped with addition of ½ volume of 2.5 M H_2SO_4. Optical density at 490 nm was measured on a spectrophotometric plate reader.
In each case, the phagemid clone was grown from a single colony overnight at 37° C. in a culture volume of 5 ml. The phage particles were precipitated and resuspended in 0.5 ml of PBS buffer.

Row | Binder | percent inhibition of phage binding by IGF-I [%]
56 | B13 | > 40
57 | B14 | > 40
58 | B15 | > 40
59 | B16 | > 40
